Assay results taken from IntAct's records for PubMed 24525235.

Key:
twst1_human TWIST1 [1] = target: twst1_human TWIST1 (UniProt Q15672)
twst1_human TWIST1 [2] = target: twst1_human TWIST1 (UniProt Q15672); remark: listed apart in the source

Substance | effect of a mutation on the interaction (twst1_human TWIST1 [1]) | effect of a mutation on the interaction (twst1_human TWIST1 [2])
Bromodomain-containing protein 4 (Homo sapiens) (from UniProt O60885-1) D144H | increasing interaction strength | –
Bromodomain-containing protein 4 (Homo sapiens) (from UniProt O60885-1) H437D | – | decreasing interaction strength
